Experimental data: the supplement of paper PMC7125110
± gives the standard error. Fewer inactive variants are shown than the library holds.

B1: glmS ribozyme (parent)
chain: AUAAAAGCGCCAGAACUACAGAAAUGUAGUUGACGAGGAGGAGGUUUAUCGAAUUUUCGGCGGAUGCCUCCAAA

What was measured:
Details in all cases: with glucosamine-6-phosphate
glucosamine-6-phosphate [1] = variants of: B1; assay: self-cleavage kobs at 40 uM GlcN6P; higher = faster cleavage; RNA array
Summary of the method: (§1)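 Barcoded ribozyme variants on sequenced MiSeq chips were transcribed in situ by E. coli RNA polymerase and followed at 37 °C through a hybridised Cy3 probe. Glucosamine-6-phosphate at 40 μM to 10 mM in HEPES/KCl/Mg(OAc)2 buffer was flowed in, and tiles were imaged over ~14 h. Signals were normalised to baseline and to non-cleaving reference variants, and per-tile medians were fit to one- or two-exponential decays to give kobs. Weighted Michaelis–Menten fits across concentrations gave kcat and KM.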

glucosamine-6-phosphate [2] = variants of: B1; assay: self-cleavage kobs at 160 uM GlcN6P; higher = faster cleavage; RNA array
Summary of the method: as §1

glucosamine-6-phosphate [3] = variants of: B1; assay: self-cleavage kobs at 2500 uM GlcN6P; higher = faster cleavage; RNA array
Summary of the method: as §1

glucosamine-6-phosphate [4] = variants of: B1; assay: self-cleavage kobs at 10000 uM GlcN6P; higher = faster cleavage; RNA array
Summary of the method: as §1

glucosamine-6-phosphate [5] = variants of: B1; assay: self-cleavage kobs at 640 uM GlcN6P; higher = faster cleavage; RNA array
Summary of the method: as §1

| Variant | self-cleavage kobs at 40 uM GlcN6P (glucosamine-6-phosphate [1]) [s⁻¹] | self-cleavage kobs at 160 uM GlcN6P (glucosamine-6-phosphate [2]) [s⁻¹] | self-cleavage kobs at 2500 uM GlcN6P (glucosamine-6-phosphate [3]) [s⁻¹] | self-cleavage kobs at 10000 uM GlcN6P (glucosamine-6-phosphate [4]) [s⁻¹] | self-cleavage kobs at 640 uM GlcN6P (glucosamine-6-phosphate [5]) [s⁻¹] |
| --- | --- | --- | --- | --- | --- |
| A33C G63C | < 1e-05 | < 1e-05 | < 1e-05 | < 1e-05 | – |
| A33C G63U | < 1e-05 | – | < 1e-05 | < 1e-05 | < 1e-05 |
| G32A A33C C68G C71G | 5.72e-05 ± 1.6e-05 | – | – | 8.64e-05 ± 2e-05 | – |
| U31G C50G C67U | 8.62e-05 ± 1.8e-05 | – | – | 0.000109 ± 2.3e-05 | – |
| G29U A33U G35A U69A | 0.000163 ± 6.6e-05 | – | – | 6.21e-05 ± 3e-05 | – |
| U30A C70U | 0.000214 ± 3.6e-05 | 0.000386 ± 7.4e-05 | 0.00125 ± 0.00027 | 0.00358 ± 0.00063 | 0.000765 ± 0.00011 |
| G32C A64C | < 1e-05 | < 1e-05 | < 1e-05 | < 1e-05 | – |
| G32A C61G U69C | 3.85e-05 ± 1.8e-05 | – | 7.4e-05 ± 2.3e-05 | 3.49e-05 ± 1.7e-05 | – |
| U30A G60U C71U | < 1e-05 | – | – | < 1e-05 | – |
| U30A G63U | < 1e-05 | < 1e-05 | – | < 1e-05 | – |
| U30A G38A U65C C70G | < 1e-05 | – | – | < 1e-05 | < 1e-05 |
| U30A A33U C34G G37A | < 1e-05 | – | – | – | – |
| U31C U69C C70A | < 1e-05 | – | – | – | – |
| U30A G43C | < 1e-05 | – | – | < 1e-05 | < 1e-05 |
| U31C U69C | 4.67e-05 ± 1.5e-05 | 5.62e-05 ± 1.5e-05 | 0.00045 ± 8.2e-05 | 0.0013 ± 0.00035 | 0.000232 ± 6.2e-05 |
| U30C G37C C58A G60U | < 1e-05 | – | – | < 1e-05 | – |
| U31C A33C A36G C71G | < 1e-05 | – | – | – | – |
| G32C A33U | < 1e-05 | < 1e-05 | < 1e-05 | – | < 1e-05 |
| A33C A42C | < 1e-05 | < 1e-05 | – | < 1e-05 | < 1e-05 |
| U31C G32C G35A G59U G66U C71U | < 1e-05 | – | < 1e-05 | < 1e-05 | – |
| G32U C58G G60U | < 1e-05 | – | – | – | – |
| G29U G60C C70A | < 1e-05 | – | – | – | – |
| U30A A42G | 0.000294 ± 7.3e-05 | – | – | 0.0172 ± 0.0059 | 0.0017 ± 0.00047 |

| Variant | self-cleavage kobs at 40 uM GlcN6P (glucosamine-6-phosphate [1]) [s⁻¹] | self-cleavage kobs at 160 uM GlcN6P (glucosamine-6-phosphate [2]) [s⁻¹] | self-cleavage kobs at 2500 uM GlcN6P (glucosamine-6-phosphate [3]) [s⁻¹] | self-cleavage kobs at 10000 uM GlcN6P (glucosamine-6-phosphate [4]) [s⁻¹] | self-cleavage kobs at 640 uM GlcN6P (glucosamine-6-phosphate [5]) [s⁻¹] |
| --- | --- | --- | --- | --- | --- |
| A33C G41C U57G | < 1e-05 | – | < 1e-05 | – | – |
| G32A A39C G44U | < 1e-05 | – | – | < 1e-05 | – |
| U31A G62C | < 1e-05 | < 1e-05 | < 1e-05 | < 1e-05 | – |
| U31C U45A G60A C67A | < 1e-05 | < 1e-05 | – | – | – |
| U31G U55G | 0.000486 ± 0.0001 | 0.000859 ± 0.00014 | 0.0116 ± 0.0027 | 0.0152 ± 0.0067 | 0.00296 ± 0.00071 |
| U31G U55A | 0.000446 ± 7.1e-05 | 0.00128 ± 0.00045 | 0.00465 ± 0.0011 | 0.0118 ± 0.0023 | 0.00221 ± 0.00041 |
| U30G G60U | < 1e-05 | – | – | < 1e-05 | < 1e-05 |
| U31A G38U A42C U55G | < 1e-05 | – | – | – | < 1e-05 |
| G32U G63U | < 1e-05 | – | < 1e-05 | < 1e-05 | – |
| G32U A64G C71U | < 1e-05 | – | 0.000459 ± 0.00016 | 0.000175 ± 3.6e-05 | – |
| G29U A36C A39C | < 1e-05 | – | – | < 1e-05 | – |
| U30A A33U U56C | < 1e-05 | – | – | – | – |
| G29U C71U | 0.000132 ± 1.2e-05 | 0.000298 ± 2.9e-05 | 0.00226 ± 0.00052 | 0.00363 ± 0.00043 | 0.000578 ± 0.0001 |
| G29U C71A | 5.78e-05 ± 1.4e-05 | – | 0.000288 ± 0.00011 | 0.00103 ± 0.00015 | 0.000172 ± 4.8e-05 |
| G32U A42U C58U | < 1e-05 | – | – | 3.73e-05 ± 1.3e-05 | – |
| U31G C61G | < 1e-05 | < 1e-05 | – | < 1e-05 | < 1e-05 |
| U31G C61A | < 1e-05 | < 1e-05 | < 1e-05 | < 1e-05 | – |
| G29U A53C C68U | < 1e-05 | – | – | 3.37e-05 ± 1.6e-05 | – |
| G32A A33C | < 1e-05 | < 1e-05 | – | – | – |
| G32A C67G C70U | < 1e-05 | – | – | – | – |
| A33C G41A A42C G63C C67U | < 1e-05 | – | < 1e-05 | < 1e-05 | – |
| U30A A48G | < 1e-05 | < 1e-05 | – | – | < 1e-05 |
